# Results reported in US20090305963A1, “Lipocalin 2 for the Treatment, Prevention, and Management of Cancer Metastasis, Angiogenesis, and Fibrosis” (priority 2005, published 2009).
# B1: lipocalin 2: human lipocalin 2 cDNA (HA tagged) in pcDNA3.1, stably expressed in 4T1-ras cells (RL clone); iron-siderophore binding protein (protein, UniProt P80188 21-198, looked up)
# Neutrophil …: QDSTSDLIPAPPLSKVPLQQNFQDNQFQGKWYVVGLAGNAILREDKDPQKMYATIYELKEDKSYNVTSVLFRKKKCDYWIRTFVPGCQPGEFTLGNIKSYPGLTSYLVRVVSTNYNQHAMVFFKKVSQNREYFKITLYGRTKELTSELKENFIRFSKSLGLPENHIVFPVPIDQCIDG
# modifications: HA tag
# How the values were obtained:
# colon cancer cells [1] = settings: ectopic expression of lipocalin 2; cited from earlier work
# [2] = test system: serum-response element (SRE); experiment: SRE-luciferase assay; type: cell-based, mouse; settings: RL cells; 48 hour incubation in serum free DMEM
# Protocol: After transient transfection of the plasmids, cells were incubated for 20 hours in 10% FCS and luciferase activity in the cell lysates was determined using a luminometer normalized by sea-pansy luciferase activity under the control of the thymidine kinase promoter. The Dual-Luciferase Reporter Assay System was purchased from Promega (Madison, Wis.) (Hanai et al., J. Biol. Chem. 277:16464-16469, 2002).
# For these experiments, EV and R cells were starved in DMEM without serum for 48 hours. During this time, half of the R cells were incubated with 50 μg/ml of lipocalin 2 protein with iron-loaded siderophore (R+Lipo:Sid:Fe), after which all cells were incubated with 10% FCS containing DMEM for 20 minutes and then harvested for western blotting with phosphospecific antibodies. Signaling events downstream of ERK activation were then monitored with a multi-copy serum-response element (SRE)-luciferase construct introduced into EV, R, and RL (FIG. 6B). For these experiments, an SRE-luciferase assay was performed on 4T1 clones after the 48 hour incubation in serum free DMEM. […] Just like R cells treated with exogenous protein (FIG. 6A), R cells infection with recombinant adenovirus carrying lipocalin 2, but not GFP, reduced SRE-luciferase activity, MEK, and ERK1/2 phosphorylation, without altering ras expression.
# To localize the effect of lipocalin on ras-MAPK signaling, we utilized an adenovirus and expression plasmid encoding a constitutively active MEK (MEK-DD) (Murakami et al., Cell Growth Differ 10:333-342, 1999). MEK-DD adenoviral infection of EV cells led to increased SRE-luciferase activity (increased MAPK activity). […] RL cells in a 6-well plate were infected with an adenovirus carrying the MEK dominant active form (MEK-DD) and a Lac-Z adenovirus at the indicated multiplicities (MOI) in 2% serum including DMEM medium for 48 hours. Cells were then trypsinized, respread on 6-well plate at 5-10% confluency, and incubated with 10% serum including DMEM medium. Cell lysates were collected for western blotting 48 hours after the final plating (FIG. 6D). […]
# caveolin-1 = experiment: Western blot of caveolin-1 expression in 4T1 clones; type: cell-based, mouse; settings: RL vs R cells
# Source text: FIGS. 17A-17C show the involvement of caveolin-1 in the MET-inducing and anti-angiogenic function of lipocalin 2.
# (§1) Cells were stained as described previously (Mammoto et al., Cancer Lett. 184:165-170, 2002) and images acquired with a Delta Vision system (Applied Precision, Issaquah, Wash.) equipped with an Axiovert 100 microscope (Carl Zeiss MicroImaging Inc., Shelton, Conn.) and a Photometrics 300 series scientific-grade cooled CCD camera, reading 12-bit images, and using the 63/1.4 NA plan-Neofluar objective. For immunoprecipitation and immunoblotting, tissues were weighed, diced, soaked in ice cold RIPA buffer with 1 mM phenylmethylsulfonyl fluoride (PMSF), 1 μg/ml Aprotinin, 1 mM Na3VO4, 1 nM NaF, homogenized on ice, centrifuged at 10,000 g for 10 minutes at 4° C., and the supernatant fluid collected as total cell lysate. Cultured cells were washed, scraped, and solubilized in a lysis buffer containing 20 mM Tris-HCl pH 7.5, 150 mM NaCl, 0.5% Triton X-100, 1% aprotinin, and 1 mM PMSF. After 20 minutes on ice, the cells were pelleted by centrifugation and the supernatants were used as a cell lysate. […] Protein bands were detected using SuperSignal® West Pico Chemiluminescent Substrate (Pierce Chemical Co., Rockford, Ill.) (Hanai et al., J. Cell. Biol. 158:529-539, 2002).
# colon cancer cells [3] = settings: ectopic expression of lipocalin 2; cited from earlier work; remark: listed apart in the source
# 4T1-ras (R) cells = experiment: In vitro invasion assay (Matrigel-coated Transwells); type: cell-based, mouse; settings: stable lipocalin 2 expression (RL) vs R cells; 16 hours
# Protocol: FIG. 3 is a graph depicting the invasion migration of stable 4T1 clones using EV, R, and RL cells. Polycarbonate membranes of Transwells were coated with Matrigel® and cells were seeded. Sixteen hours later, cells were fixed, stained with Giemsa solution, and counted for each of the stable clones; EV, R, and RL.
# Polycarbonate membranes (6.5 mm diameter, 8 μm pore size) of Transwells (Coster, N.Y.) were coated with Matrigel® (BD Biosciences, Franklin Lakes, N.J.) and cells were seeded (10^6 cells/100 μl) with DMEM including 0.1% serum. 16 hours later, cells were fixed, stained with Giemsa solution, and the upper surface of each membrane was scraped with a cotton swab. Cells that had reached the lower surface of the membrane (migrated cells) were counted in 20 random fields using a light microscope (×400).
# E-cadherin = E-cadherin phosphorylation (immunoprecipitation and western blot); type: cell-based, mouse; settings: R cells vs RL cells or R cells with inhibitor
# Source text: Cells were stained as described previously (Mammoto et al., Cancer Lett. 184:165-170, 2002) and images acquired with a Delta Vision system (Applied Precision, Issaquah, Wash.) equipped with an Axiovert 100 microscope (Carl Zeiss MicroImaging Inc., Shelton, Conn.) and a Photometrics 300 series scientific-grade cooled CCD camera, reading 12-bit images, and using the 63/1.4 NA plan-Neofluar objective. For immunoprecipitation and immunoblotting, tissues were weighed, diced, soaked in ice cold RIPA buffer with 1 mM phenylmethylsulfonyl fluoride (PMSF), 1 μg/ml Aprotinin, 1 mM Na3VO4, 1 nM NaF, homogenized on ice, centrifuged at 10,000 g for 10 minutes at 4° C., and the supernatant fluid collected as total cell lysate. Cultured cells were washed, scraped, and solubilized in a lysis buffer containing 20 mM Tris-HCl pH 7.5, 150 mM NaCl, 0.5% Triton X-100, 1% aprotinin, and 1 mM PMSF. After 20 minutes on ice, the cells were pelleted by centrifugation and the supernatants were used as a cell lysate. Cell lysates or immunoprecipitated cell lysates were separated by PAGE (NuPAGE® gels; Invitrogen, Carlsbad, Calif.), followed by electroblotting onto a polyvinylidenedifluoride membrane (PVDF). Protein bands were detected using SuperSignal® West Pico Chemiluminescent Substrate (Pierce Chemical Co., Rockford, Ill.) (Hanai et al., J. Cell. Biol. 158:529-539, 2002).
# VEGF mRNA = VEGF mRNA by semi-quantitative RT-PCR in 4T1 cells; type: cell-based, mouse; settings: RL vs R cells
# Protocol: For VEGF assays, two μg of each RNA sample was reverse transcribed using oligo-dT priming and control reaction was prepared for every sample where the reverse transcriptase was omitted. PCR was performed using Taq DNA polymerase (Qiagen) using primers for mouse VEGF (5′-GTACCTCCACCATGCCAAGT-3′, SEQ ID NO: 10, and 5′-GCGAGTCTGTGTTTTTGCAG-3′ SEQ ID NO: 11), GAPDH (5′-ACAGTCTTCTGAGTGGCA-3′ SEQ ID NO: 6 and 5′-CCCATCACCATCTTCCAG-3′, SEQ ID NO: 7) for DNA amplification. PCR amplification was achieved by initial 94° C. incubation for 5 minutes followed by 25 cycles of 94° C. for 30 seconds, 58° C. for 30 seconds and 72° C. for 30 seconds, with 72° C. for 7 minutes as an extension time. These PCR conditions were established for DNA amplification in the linear range. PCR products were analyzed on 1.5% agarose gels.
# AKT = experiment: Western blot for phospho-AKT; type: cell-based, mouse
# Source text: FIGS. 14A-14B are western blots for phospho-AKT (pAKT) showing the downregulation of ras-induced AKT phosphorylation, but not IGF-1 induced AKT phosphorylation, by lipocalin 2. FIG. 14A is a western blot for pAKT showing the lysate from each 4T1 clone (EV, R and RL). FIG. 14B is a western blot for pAKT showing the lysate from EV or RL cells treated with or without IGF-1. GAPDH serves as a loading control.
# as §1, with “lysate.” for “lysate. Cultured cells were washed, scraped, and solubilized in a lysis buffer containing 20 mM Tris-HCl pH 7.5, 150 mM NaCl, 0.5% Triton X-100, 1% aprotinin, and 1 mM PMSF. After 20 minutes on ice, the cells were pelleted by centrifugation and the supernatants were used as a cell lysate.”
molecule,measurement,setting,value
B1,liver metastasis,colon cancer cells [1],inhibited liver metastasis
same,SRE-luciferase activity relative to R cells,[2],about half to two-thirds
same,caveolin-1 expression,caveolin-1,rescued this loss of caveolin-1
same,invasiveness of colon cancer cells,colon cancer cells [3],suppressed the invasiveness of colon cancer cells
same,reversal of ras induced invasiveness in vitro,4T1-ras (R) cells,approximately 76%
same,E-cadherin phosphorylation,E-cadherin,markedly downregulated
same,ras-augmented VEGF mRNA level,VEGF mRNA,reduced this upregulation
same,IGF-1-induced phosphorylation of AKT,AKT; EV or RL cells with or without IGF-1,does not downregulate
same,ras-induced phosphorylation of AKT,"AKT; EV, R and RL clones",downregulates
